Experimental findings from patent US20110312897 are described below.

For this data set, the system named is C-terminally 6xHIS tagged, full-length recombinant histone H3.

“recombinant Cathepsin B (R&D Systems Cat No. BAF965)”: the “H3 cleavage assay with pre-activated enzyme, immunoblot with HIS and H3.cs1 antibodies” value was “Cathepsin B cleaves rH3 with a distinct pattern from Cathepsins K or L and does not significantly produce the H3.cs1 epitope”.
As for “recombinant Cathepsin K (Calbiochem Cat. No. 342001)”, the entry is “Cathepsin K produces a similar pattern to Cathepsin L under these assay conditions”.
